The values that follow come from PMC6555819, “Comprehensive study of nuclear receptor DNA binding provides a revised framework for understanding receptor specificity”.

The target of series [1] is PPARg:RXRa (Homo sapiens, UniProt P37231;P19793 full;full). Kind of series: no ligand; PBM; 180 nM : 90 nM RXRa; PBS pH 7.4, 2% milk, 0.02% Triton X-100, 1 mM DTT, BSA, 0.4 mg/ml salmon testes DNA. Particulars: tags: His kept;His cleaved; copies: 1;1; label: surface-attached array probe.
Series [2] concerns the target RARa:RXRa (Homo sapiens, UniProt P10276;P19793 full;full). Kind of series: no ligand; PBM; 270 nM : 90 nM RXRa; PBS pH 7.4, 2% milk, 0.02% Triton X-100, 1 mM DTT, BSA, 0.4 mg/ml salmon testes DNA. Particulars: tags: His kept;His cleaved; copies: 1;1; label: surface-attached array probe. Put shortly: (§1)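 Custom Agilent 4×180K protein-binding microarrays carried double-stranded probes. Their 34-nt variable regions held direct-repeat seeds, single-nucleotide variants, half-site ablations and random human genomic background sequences. Arrays were incubated 1 h with ligand-free nuclear receptor dimers in PBS pH 7.4, 2% milk, 0.02% Triton X-100, 1 mM DTT, 0.2 mg/mL BSA and 0.4 mg/ml salmon testes DNA. Antibodies against each partner (one per run) detected binding, and scanned fluorescence was regression-normalized. Binding z-scores use random background probes as reference.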

For series [3], the target named is RXRa (Homo sapiens, UniProt P19793). Kind of series: no ligand; PBM; 180 nM; PBS pH 7.4, 2% milk, 0.02% Triton X-100, 1 mM DTT, BSA, 0.4 mg/ml salmon testes DNA. The following applies: tags: His cleaved; chain copies: 2; label: surface-attached array probe.
The target of series [4] is RARg:RXRa (Homo sapiens, UniProt P13631;P19793 full;full). Kind of series: no ligand; PBM; 270 nM : 90 nM RXRa; PBS pH 7.4, 2% milk, 0.02% Triton X-100, 1 mM DTT, BSA, 0.4 mg/ml salmon testes DNA. Particulars: tags: His kept;His cleaved; copies: 1;1; label: surface-attached array probe. Put shortly:
as §1

Series [5] concerns the target LXRa:RXRa (Homo sapiens, UniProt Q13133;P19793 full;full). The description is as above. Particulars: tags: His kept;His cleaved; copies: 1;1; label: surface-attached array probe. Put shortly: as §1
Series [6] has as its target LXRb:RXRa (Homo sapiens, UniProt P55055;P19793 full;full). The series is described as above. The following applies: tags: His kept;His cleaved; copies: 1;1; label: surface-attached array probe. Put shortly: as §1
In series [7] the target is PPARa:RXRa (Homo sapiens, UniProt Q07869;P19793 full;full). The series is described as above. Particulars: tags: GST kept;His cleaved; copies: 1;1; label: surface-attached array probe. Put shortly: as §1
Series [8] deals with FXR:RXRa (Homo sapiens, UniProt Q96RI1;P19793 full;full). Described as above. Particulars: tags: His kept;His cleaved; copies: 1;1; label: surface-attached array probe. Put shortly: as §1
Series [9] concerns the target RARb:RXRa (Homo sapiens, UniProt P10826;P19793 full;full). Described as above. The following applies: tags: His kept;His cleaved; copies: 1;1; label: surface-attached array probe. Put shortly:
as §1

The target of series [10] is PXR:RXRa (Homo sapiens, UniProt O75469;P19793 full;full). Described as above. The following applies: tags: His kept;His cleaved; copies: 1;1; label: surface-attached array probe. The procedure, abridged: as §1
The target of series [11] is VDR:RXRa (Homo sapiens, UniProt P11473;P19793 full;full). The series is described as above. Particulars: tags: His kept;His cleaved; copies: 1;1; label: surface-attached array probe. The procedure, abridged:
as §1

Chain of LXRb:RXRa (P55055 whole entry, chain 1 of 2): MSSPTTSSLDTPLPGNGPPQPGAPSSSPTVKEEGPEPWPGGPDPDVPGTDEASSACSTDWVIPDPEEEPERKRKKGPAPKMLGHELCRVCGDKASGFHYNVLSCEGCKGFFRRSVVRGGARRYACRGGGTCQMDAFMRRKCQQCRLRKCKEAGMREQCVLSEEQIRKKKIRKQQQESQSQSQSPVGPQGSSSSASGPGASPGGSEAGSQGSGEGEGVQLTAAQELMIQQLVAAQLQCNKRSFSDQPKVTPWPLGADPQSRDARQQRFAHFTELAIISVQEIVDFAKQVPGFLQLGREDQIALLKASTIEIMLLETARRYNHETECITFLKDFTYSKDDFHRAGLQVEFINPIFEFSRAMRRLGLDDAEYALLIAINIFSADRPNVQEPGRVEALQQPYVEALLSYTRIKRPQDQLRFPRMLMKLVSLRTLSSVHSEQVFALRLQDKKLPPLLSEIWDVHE
Chain of LXRb:RXRa (P19793 whole entry, chain 2 of 2): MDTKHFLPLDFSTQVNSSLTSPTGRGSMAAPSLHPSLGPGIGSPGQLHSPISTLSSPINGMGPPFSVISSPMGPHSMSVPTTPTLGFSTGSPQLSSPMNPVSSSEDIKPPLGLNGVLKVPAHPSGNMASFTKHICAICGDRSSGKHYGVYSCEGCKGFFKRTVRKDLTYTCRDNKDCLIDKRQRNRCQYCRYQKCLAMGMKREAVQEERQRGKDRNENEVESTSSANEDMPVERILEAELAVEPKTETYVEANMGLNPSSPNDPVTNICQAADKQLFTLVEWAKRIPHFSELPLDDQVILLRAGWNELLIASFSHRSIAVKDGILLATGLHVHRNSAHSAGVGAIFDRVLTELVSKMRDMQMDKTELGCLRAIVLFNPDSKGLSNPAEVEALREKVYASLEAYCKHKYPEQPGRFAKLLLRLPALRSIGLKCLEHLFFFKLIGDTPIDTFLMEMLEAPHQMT
Chain of PPARg:RXRa (P37231 29-505, chain 1 of 2): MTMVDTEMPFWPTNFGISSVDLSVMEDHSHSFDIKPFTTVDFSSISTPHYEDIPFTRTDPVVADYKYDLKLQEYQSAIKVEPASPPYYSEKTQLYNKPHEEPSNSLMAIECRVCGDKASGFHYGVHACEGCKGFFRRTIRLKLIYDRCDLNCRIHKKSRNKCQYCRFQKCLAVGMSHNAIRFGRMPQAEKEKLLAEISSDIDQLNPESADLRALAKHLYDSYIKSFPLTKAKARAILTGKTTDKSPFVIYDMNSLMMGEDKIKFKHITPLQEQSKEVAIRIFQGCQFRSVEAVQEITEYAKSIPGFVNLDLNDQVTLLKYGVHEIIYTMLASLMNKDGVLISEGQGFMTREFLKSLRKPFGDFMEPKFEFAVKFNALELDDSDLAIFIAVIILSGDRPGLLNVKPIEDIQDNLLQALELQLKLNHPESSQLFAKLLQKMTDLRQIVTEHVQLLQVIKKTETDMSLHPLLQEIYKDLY
Chain of PPARg:RXRa (P19793 whole entry, chain 2 of 2): as the sequence (P19793 whole entry, chain 2 of 2) above
Chain of RXRa (P19793 whole entry): as the sequence (P19793 whole entry, chain 2 of 2) above
Chain of RARb:RXRa (P10826 whole entry, chain 1 of 2): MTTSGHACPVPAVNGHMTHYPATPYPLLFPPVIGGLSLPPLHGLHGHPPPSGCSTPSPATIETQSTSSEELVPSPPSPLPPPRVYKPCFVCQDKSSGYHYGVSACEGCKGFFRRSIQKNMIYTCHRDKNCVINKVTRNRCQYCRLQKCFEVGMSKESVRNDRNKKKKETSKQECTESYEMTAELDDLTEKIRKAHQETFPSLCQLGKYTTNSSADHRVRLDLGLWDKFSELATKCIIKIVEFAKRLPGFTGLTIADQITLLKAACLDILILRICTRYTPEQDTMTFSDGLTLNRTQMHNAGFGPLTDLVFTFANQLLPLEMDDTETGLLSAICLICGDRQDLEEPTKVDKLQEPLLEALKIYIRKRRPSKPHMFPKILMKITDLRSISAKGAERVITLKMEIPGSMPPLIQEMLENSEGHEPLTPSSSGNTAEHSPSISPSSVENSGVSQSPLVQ
Chain of RARb:RXRa (P19793 whole entry, chain 2 of 2): as the sequence (P19793 whole entry, chain 2 of 2) above
Chain of FXR:RXRa (Q96RI1 whole entry, chain 1 of 2): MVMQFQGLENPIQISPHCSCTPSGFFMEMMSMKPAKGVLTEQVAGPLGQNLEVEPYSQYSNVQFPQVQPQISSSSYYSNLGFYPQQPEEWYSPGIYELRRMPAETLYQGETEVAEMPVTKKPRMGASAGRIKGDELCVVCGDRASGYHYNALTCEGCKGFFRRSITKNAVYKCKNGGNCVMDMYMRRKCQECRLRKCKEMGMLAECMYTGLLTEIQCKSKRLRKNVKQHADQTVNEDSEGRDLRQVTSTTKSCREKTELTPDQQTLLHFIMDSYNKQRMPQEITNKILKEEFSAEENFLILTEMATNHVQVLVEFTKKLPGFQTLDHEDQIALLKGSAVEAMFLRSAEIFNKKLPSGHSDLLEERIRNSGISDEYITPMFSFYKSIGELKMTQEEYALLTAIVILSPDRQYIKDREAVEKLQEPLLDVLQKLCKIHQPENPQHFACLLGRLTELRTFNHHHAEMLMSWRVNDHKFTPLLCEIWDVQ
Chain of FXR:RXRa (P19793 whole entry, chain 2 of 2): as the sequence (P19793 whole entry, chain 2 of 2) above
Chain of VDR:RXRa (P11473 whole entry, chain 1 of 2): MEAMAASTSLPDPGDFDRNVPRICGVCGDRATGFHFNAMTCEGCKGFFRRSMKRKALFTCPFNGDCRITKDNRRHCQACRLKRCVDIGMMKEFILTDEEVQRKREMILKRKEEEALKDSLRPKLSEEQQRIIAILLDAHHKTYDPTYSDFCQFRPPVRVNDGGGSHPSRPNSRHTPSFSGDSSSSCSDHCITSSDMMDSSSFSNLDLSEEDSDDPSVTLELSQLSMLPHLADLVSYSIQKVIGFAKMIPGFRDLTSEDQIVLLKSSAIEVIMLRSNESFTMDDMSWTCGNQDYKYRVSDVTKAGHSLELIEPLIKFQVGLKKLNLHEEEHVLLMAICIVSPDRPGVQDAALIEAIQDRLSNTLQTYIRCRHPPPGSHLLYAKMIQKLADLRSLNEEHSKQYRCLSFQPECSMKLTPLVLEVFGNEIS
Chain of VDR:RXRa (P19793 whole entry, chain 2 of 2): as the sequence (P19793 whole entry, chain 2 of 2) above
Chain of RARg:RXRa (P13631 whole entry, chain 1 of 2): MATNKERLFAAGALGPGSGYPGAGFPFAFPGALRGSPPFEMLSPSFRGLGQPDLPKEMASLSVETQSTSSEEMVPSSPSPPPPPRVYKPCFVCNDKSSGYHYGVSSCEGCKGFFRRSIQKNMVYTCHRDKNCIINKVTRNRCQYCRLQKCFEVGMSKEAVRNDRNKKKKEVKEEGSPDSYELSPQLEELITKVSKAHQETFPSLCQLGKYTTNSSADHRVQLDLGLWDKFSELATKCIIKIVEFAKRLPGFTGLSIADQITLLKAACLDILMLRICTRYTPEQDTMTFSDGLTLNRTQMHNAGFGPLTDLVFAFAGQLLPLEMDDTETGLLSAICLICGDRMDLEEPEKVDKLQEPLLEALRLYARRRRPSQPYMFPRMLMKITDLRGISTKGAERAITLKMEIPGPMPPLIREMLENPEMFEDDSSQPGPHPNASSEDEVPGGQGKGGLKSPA
Chain of RARg:RXRa (P19793 whole entry, chain 2 of 2): as the sequence (P19793 whole entry, chain 2 of 2) above
Chain of RARa:RXRa (P10276 whole entry, chain 1 of 2): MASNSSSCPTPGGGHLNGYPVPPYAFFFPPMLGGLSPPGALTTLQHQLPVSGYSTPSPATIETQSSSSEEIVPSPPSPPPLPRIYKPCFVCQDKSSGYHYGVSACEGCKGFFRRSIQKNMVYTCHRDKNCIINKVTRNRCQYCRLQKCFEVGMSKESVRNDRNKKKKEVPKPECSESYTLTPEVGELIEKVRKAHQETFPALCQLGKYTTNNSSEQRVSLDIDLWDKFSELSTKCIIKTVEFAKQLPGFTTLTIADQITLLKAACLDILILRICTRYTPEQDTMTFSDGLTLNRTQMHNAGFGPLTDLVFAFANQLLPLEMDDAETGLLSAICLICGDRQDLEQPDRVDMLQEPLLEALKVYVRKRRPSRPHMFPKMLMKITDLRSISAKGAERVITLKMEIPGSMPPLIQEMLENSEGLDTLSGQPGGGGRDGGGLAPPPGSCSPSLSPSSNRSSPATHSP
Chain of RARa:RXRa (P19793 whole entry, chain 2 of 2): as the sequence (P19793 whole entry, chain 2 of 2) above
Chain of PPARa:RXRa (Q07869 whole entry, chain 1 of 2): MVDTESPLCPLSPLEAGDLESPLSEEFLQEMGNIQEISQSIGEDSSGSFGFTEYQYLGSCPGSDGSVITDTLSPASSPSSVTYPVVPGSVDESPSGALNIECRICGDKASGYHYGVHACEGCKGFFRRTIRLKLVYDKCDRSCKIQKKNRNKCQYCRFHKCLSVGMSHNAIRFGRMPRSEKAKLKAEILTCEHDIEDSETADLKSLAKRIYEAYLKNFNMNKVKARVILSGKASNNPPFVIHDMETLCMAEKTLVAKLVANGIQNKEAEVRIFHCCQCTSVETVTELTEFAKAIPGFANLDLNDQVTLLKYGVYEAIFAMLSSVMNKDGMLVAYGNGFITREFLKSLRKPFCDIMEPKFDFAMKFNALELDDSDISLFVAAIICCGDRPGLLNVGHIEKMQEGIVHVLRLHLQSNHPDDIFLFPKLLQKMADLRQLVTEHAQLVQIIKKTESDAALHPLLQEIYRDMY
Chain of PPARa:RXRa (P19793 whole entry, chain 2 of 2): as the sequence (P19793 whole entry, chain 2 of 2) above

B1: NRC3_wobSeed28_DR1_C7G_o1 (dsDNA)
DNA 1: GCCCTAGTGGGCCAAAGGTCATTGATTCCAATGCTCGCGATTGACAGCGTAGAATGAAGG
DNA 2: CCTTCATTCTACGCTGTCAATCGCGAGCATTGGAATCAATGACCTTTGGCCCACTAGGGC
With B1, the binding signal in series [1] was 13.1 PBM z-score against 500 random probes; in series [2], 7.08 PBM z-score against 500 random probes.

B2: NRC3_wobSeed27_DR1_A12G_o1 (dsDNA)
DNA 1: GCACTCGGAGGGCAAAGGTCAGAGCTACGCCAGTGAGCGATTGACAGCGTAGAATGAAGG
DNA 2: CCTTCATTCTACGCTGTCAATCGCTCACTGGCGTAGCTCTGACCTTTGCCCTCCGAGTGC
As to B2, the binding signal in [3] is 8.52 PBM z-score against 500 random probes; in series [1], 9.6 PBM z-score against 500 random probes; in [2], 7.48 PBM z-score against 500 random probes.

B3: NRC3_wobSeed38_DR1_T16G_o1 (dsDNA)
DNA 1: GCCCTGCTAGGTCAAGGGTCAGCTAAAGCAGCTCGCGCGATTGACAGCGTAGAATGAAGG
DNA 2: CCTTCATTCTACGCTGTCAATCGCGCGAGCTGCTTTAGCTGACCCTTGACCTAGCAGGGC
Consider B3, for which the binding signal was 10.5 PBM z-score against 500 random probes in series [1] and 7.26 PBM z-score against 500 random probes in series [2].

B4: NRC3_wobSeed138_DR5_C23T_o1 (dsDNA)
DNA 1: GCGATACAGGGTCAGCTAGAGGTCAGAGTATGGAAAGCGATTGACAGCGTAGAATGAAGG
DNA 2: CCTTCATTCTACGCTGTCAATCGCTTTCCATACTCTGACCTCTAGCTGACCCTGTATCGC
With B4, the binding signal in series [1] was 5.41 PBM z-score against 500 random probes; in [2], 7.75 PBM z-score against 500 random probes; in [4], 9.04 PBM z-score against 500 random probes.

B5: NRC3_wobSeed121_DR5_C30T_o1 (dsDNA)
DNA 1: GCCAAACTAGGTCACCGGAAGGTCAAAGTTCGCATGGCGATTGACAGCGTAGAATGAAGG
DNA 2: CCTTCATTCTACGCTGTCAATCGCCATGCGAACTTTGACCTTCCGGTGACCTAGTTTGGC
On to B5, for which the binding signal in [3] is 8.07 PBM z-score against 500 random probes; in [1] it was 10.6 PBM z-score against 500 random probes; in series [2], 8.54 PBM z-score against 500 random probes.

B6: NRC3_wobSeed97_DR4_T8A_o1 (dsDNA)
DNA 1: GCCAAACAAGGTCACGAAAGGTCAAAGTCGAATGACGCGATTGACAGCGTAGAATGAAGG
DNA 2: CCTTCATTCTACGCTGTCAATCGCGTCATTCGACTTTGACCTTTCGTGACCTTGTTTGGC
On to B6, for which the binding signal in [3] was 9.58 PBM z-score against 500 random probes; in [5], 8.85 PBM z-score against 500 random probes; in series [6], 8.12 PBM z-score against 500 random probes; in series [7], 7 PBM z-score against 500 random probes; in [2], 8.72 PBM z-score against 500 random probes; in [4] it was 8.87 PBM z-score against 500 random probes. The binding signal was 8.87 PBM z-score against 500 random probes in series [8], 6.14 PBM z-score against 500 random probes in [9], 7.87 PBM z-score against 500 random probes in series [10] and 7.94 PBM z-score against 500 random probes in series [11].

B7: NRC3_wobSeed97_DR4_T8G_o1 (dsDNA)
DNA 1: GCCAAACGAGGTCACGAAAGGTCAAAGTCGAATGACGCGATTGACAGCGTAGAATGAAGG
DNA 2: CCTTCATTCTACGCTGTCAATCGCGTCATTCGACTTTGACCTTTCGTGACCTCGTTTGGC
With B7, the binding signal in [3] is 9.84 PBM z-score against 500 random probes; in [5], 8.87 PBM z-score against 500 random probes; in series [6], 7.93 PBM z-score against 500 random probes; in series [7] it was 6.96 PBM z-score against 500 random probes; in [2], 8.33 PBM z-score against 500 random probes; in [4], 8.98 PBM z-score against 500 random probes. The binding signal in series [8] is 9.24 PBM z-score against 500 random probes; in [9] it was 6.03 PBM z-score against 500 random probes; in [10] it was 7.9 PBM z-score against 500 random probes; in series [11], 7.51 PBM z-score against 500 random probes.

B8: NRC3_wobSeed73_DR3_T8A_o1 (dsDNA)
DNA 1: GCCAAACAAGGTCACAGAGGTCAAAGTCCGTGCGTAGCGATTGACAGCGTAGAATGAAGG
DNA 2: CCTTCATTCTACGCTGTCAATCGCTACGCACGGACTTTGACCTCTGTGACCTTGTTTGGC
For the molecule B8, the binding signal is 10.1 PBM z-score against 500 random probes in series [3]; 7.79 PBM z-score against 500 random probes in series [5]; 7.37 PBM z-score against 500 random probes in series [6]; 6.92 PBM z-score against 500 random probes in [7]; 8.63 PBM z-score against 500 random probes in series [2]; 8.47 PBM z-score against 500 random probes in [4]. The binding signal in [8] was 8.84 PBM z-score against 500 random probes; in [9], 6.08 PBM z-score against 500 random probes; in [10] it was 7.48 PBM z-score against 500 random probes; in [11] it was 8.7 PBM z-score against 500 random probes.
